Test results published in patent publication US20250002588A1 (DIAGONAL THERAPEUTICS, published 2025).
Numbering of substitutions follows the chain as printed.

B1: DGL281 (bispecific antibody, human IgG1, lambda)
heavy: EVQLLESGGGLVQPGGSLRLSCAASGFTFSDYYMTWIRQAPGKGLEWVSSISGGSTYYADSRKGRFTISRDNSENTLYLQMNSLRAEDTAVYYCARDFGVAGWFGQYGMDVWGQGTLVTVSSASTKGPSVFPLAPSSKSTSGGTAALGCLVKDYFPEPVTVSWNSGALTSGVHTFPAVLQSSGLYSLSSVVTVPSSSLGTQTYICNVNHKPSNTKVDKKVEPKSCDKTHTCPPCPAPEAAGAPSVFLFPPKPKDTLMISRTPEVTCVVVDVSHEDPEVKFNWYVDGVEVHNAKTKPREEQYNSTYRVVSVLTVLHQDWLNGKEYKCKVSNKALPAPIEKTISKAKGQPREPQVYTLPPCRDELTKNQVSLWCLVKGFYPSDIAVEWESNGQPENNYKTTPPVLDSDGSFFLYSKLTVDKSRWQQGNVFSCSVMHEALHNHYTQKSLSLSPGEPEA
light: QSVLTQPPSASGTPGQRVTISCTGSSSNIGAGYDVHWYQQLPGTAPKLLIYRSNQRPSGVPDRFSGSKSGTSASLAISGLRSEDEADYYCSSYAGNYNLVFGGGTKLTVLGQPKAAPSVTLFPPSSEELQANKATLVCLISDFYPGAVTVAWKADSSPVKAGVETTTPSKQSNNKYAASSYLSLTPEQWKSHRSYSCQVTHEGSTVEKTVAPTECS
chain: EVQLLESGGGLVQPGGSLRLSCAASGFTFSDYYMTWIRQAPGKGLEWVSSISGGSTYYADSRKGRFTISRDNSENTLYLQMNSLRAEDTAVYYCARDFGVAGWFGQYGMDVWGQGTLVTVSSGGGGSGGGGSGGGGSQSVLTQPPSASGTPGQRVTISCTGSSSNIGAGYDVHWYQQLPGTAPKLLIYRSNQRPSGVPDRFSGSKSGTSASLAISGLRSEDEADYYCSSYAGNYNLVFGGGTKLTVLDKTHTCPPCPAPEAAGAPSVFLFPPKPKDTLMISRTPEVTCVVVDVSHEDPEVKFNWYVDGVEVHNAKTKPREEQYNSTYRVVSVLTVLHQDWLNGKEYKCKVSNKALPAPIEKTISKAKGQPREPQVCTLPPSRDELTKNQVSLSCAVKGFYPSDIAVEWESNGQPENNYKTTPPVLDSDGSFFLVSKLTVDKSRWQQGNVFSCSVMHEALHNHYTQKSLSLSPGKWSHPQFEK
B2: DGL282 (bispecific antibody, human IgG1, lambda)
heavy 1: EVQLLESGGGLVQPGGSLRLSCAASGFTFSIYAMSWVRQAPGKGLEWVSAISGSGGSTYYADSVKGRFTISRDNSKNTLYLQMNSLRAEDTAVYYCARDFDYWGQGTLVTVTSSASVAAPSVFIFPPSDEQLKSGTASVVCLLNNFYPREAKVQWKVDNALQSGNSQESVTEQDSKDSTYSLSSTLTLSKADYEKHKVYACEVTHQGLSSPVTKSFNRGECDKTHTCPPCPAPEAAGAPSVFLFPPKPKDTLMISRTPEVTCVVVDVSHEDPEVKFNWYVDGVEVHNAKTKPREEQYNSTYRVVSVLTVLHQDWLNGKEYKCKVSNKALPAPIEKTISKAKGQPREPQVCTLPPSRDELTKNQVSLSCAVKGFYPSDIAVEWESNGQPENNYKTTPPVLDSDGSFFLVSKLTVDKSRWQQGNVFSCSVMHEALHNHYTQKSLSLSPGWSHPQFEK
light 1: QSVLTQPPSASGTPGQRVTISCSGSSSNIGSNYVYWYQQLPGTAPKLLIYGNINRPSGVPDRFSGSKSGTSASLAISGLRSEDEADYYCAAWDDSLNGRVFGGGTKLTVLSSASTKGPSVFPLAPSSKSTSGGTAALGCLVKDYFPEPVTVSWNSGALTSGVHTFPAVLQSSGLYSLSSVVTVPSSSLGTQTYICNVNHKPSNTKVDKKVEPKSC
heavy 2: not shown
light 2: not shown
B3: DGL283 (bispecific antibody, human IgG1, lambda)
heavy 1: EVQLLESGGGLVQPGGSLRLSCAASGFTFSSYAMSWVRQAPGKGLEWVANINQDGSEKNYVDSMRGRFTISRDNSKNTLYLQMNSLRAEDTAVYYCAREFDYWGQGTLVTVTSSASVAAPSVFIFPPSDEQLKSGTASVVCLLNNFYPREAKVQWKVDNALQSGNSQESVTEQDSKDSTYSLSSTLTLSKADYEKHKVYACEVTHQGLSSPVTKSFNRGECDKTHTCPPCPAPEAAGAPSVFLFPPKPKDTLMISRTPEVTCVVVDVSHEDPEVKFNWYVDGVEVHNAKTKPREEQYNSTYRVVSVLTVLHQDWLNGKEYKCKVSNKALPAPIEKTISKAKGQPREPQVCTLPPSRDELTKNQVSLSCAVKGFYPSDIAVEWESNGQPENNYKTTPPVLDSDGSFFLVSKLTVDKSRWQQGNVFSCSVMHEALHNHYTQKSLSLSPGWSHPQFEK
light 1: B2 light 1 with T5A, I53N, N54K
heavy 2: not shown
light 2: not shown
B4: DGL285 (bispecific antibody)
chain: EVQLLESGGGLVQPGGSLRLSCAASGFTFSIYAMSWVRQAPGKGLEWVSAISGSGGSTYYADSVKGRFTISRDNSKNTLYLQMNSLRAEDTAVYYCARDFDYWGQGTLVTVTSSGGGGSGGGGSGGGGSQSVLTQPPSASGTPGQRVTISCSGSSSNIGSNYVYWYQQLPGTAPKLLIYGNINRPSGVPDRFSGSKSGTSASLAISGLRSEDEADYYCAAWDDSLNGRVFGGGTKLTVLDKGPSVFPLAPEPKSSEVQLLESGGGLVQPGGSLRLSCAASGFTFSNAWMNWVRQAPGKGLEWVSSISSSSSYIYYADSVKGRFTISRDNSKNTLYLQMNSLRAEDTAVYYCARAVAAGGMFWGLDQWGQGTLVTVTSSGGGGSGGGGSGGGGSQSVLTQPPSASGTPGQRVTISCSGSRSNIGSNSVHWYQQLPGTAPKLLIYGNSNRPSGVPDRFSGSKSGTSASLAISGLRSEDEADYYCQSYDSSLNDHVVFGGGTKLTVLDKTHTCPPCPAPEAAGAPSVFLFPPKPKDTLMISRTPEVTCVVVDVSHEDPEVKFNWYVDGVEVHNAKTKPREEQYNSTYRVVSVLTVLHQDWLNGKEYKCKVSNKALPAPIEKTISKAKGQPREPQVYTLPPSRDELTKNQVSLTCLVKGFYPSDIAVEWESNGQPENNYKTTPPVLDSDGSFFLYSKLTVDKSRWQQGNVFSCSVMHEALHNHYTQKSLSLSPG
B5: DGL286 (bispecific antibody)
chain: EVQLLESGGGLVQPGGSLRLSCAASGFTFSNAWMNWVRQAPGKGLEWVSSISSSSSYIYYADSVKGRFTISRDNSKNTLYLQMNSLRAEDTAVYYCARAVAAGGMFWGLDQWGQGTLVTVTSSGGGGSGGGGSGGGGSQSVLTQPPSASGTPGQRVTISCSGSRSNIGSNSVHWYQQLPGTAPKLLIYGNSNRPSGVPDRFSGSKSGTSASLAISGLRSEDEADYYCQSYDSSLNDHVVFGGGTKLTVLDKGPSVFPLAPEPKSSEVQLLESGGGLVQPGGSLRLSCAASGFTFSIYAMSWVRQAPGKGLEWVSAISGSGGSTYYADSVKGRFTISRDNSKNTLYLQMNSLRAEDTAVYYCARDFDYWGQGTLVTVTSSGGGGSGGGGSGGGGSQSVLTQPPSASGTPGQRVTISCSGSSSNIGSNYVYWYQQLPGTAPKLLIYGNINRPSGVPDRFSGSKSGTSASLAISGLRSEDEADYYCAAWDDSLNGRVFGGGTKLTVLDKTHTCPPCPAPEAAGAPSVFLFPPKPKDTLMISRTPEVTCVVVDVSHEDPEVKFNWYVDGVEVHNAKTKPREEQYNSTYRVVSVLTVLHQDWLNGKEYKCKVSNKALPAPIEKTISKAKGQPREPQVYTLPPSRDELTKNQVSLTCLVKGFYPSDIAVEWESNGQPENNYKTTPPVLDSDGSFFLYSKLTVDKSRWQQGNVFSCSVMHEALHNHYTQKSLSLSPG
B6: DGL287 (bispecific antibody)
chain: EVQLLESGGGLVQPGGSLRLSCAASGFTFSSYAMSWVRQAPGKGLEWVANINQDGSEKNYVDSMRGRFTISRDNSKNTLYLQMNSLRAEDTAVYYCAREFDYWGQGTLVTVTSSGGGGSGGGGSGGGGSQSVLAQPPSASGTPGQRVTISCSGSSSNIGSNYVYWYQQLPGTAPKLLIYGNNKRPSGVPDRFSGSKSGTSASLAISGLRSEDEADYYCAAWDDSLNGRVFGGGTKLTVLDKGPSVFPLAPEPKSSEVQLLESGGGLVQPGGSLRLSCAASGFTFSDYYMTWIRQAPGKGLEWVSSISGGSTYYADSRKGRFTISRDNSENTLYLQMNSLRAEDTAVYYCARDFGVAGWFGQYGMDVWGQGTLVTVSSGGGGSGGGGSGGGGSQSVLTQPPSASGTPGQRVTISCTGSSSNIGAGYDVHWYQQLPGTAPKLLIYRSNQRPSGVPDRFSGSKSGTSASLAISGLRSEDEADYYCSSYAGNYNLVFGGGTKLTVLDKTHTCPPCPAPEAAGAPSVFLFPPKPKDTLMISRTPEVTCVVVDVSHEDPEVKFNWYVDGVEVHNAKTKPREEQYNSTYRVVSVLTVLHQDWLNGKEYKCKVSNKALPAPIEKTISKAKGQPREPQVYTLPPSRDELTKNQVSLTCLVKGFYPSDIAVEWESNGQPENNYKTTPPVLDSDGSFFLYSKLTVDKSRWQQGNVFSCSVMHEALHNHYTQKSLSLSPG
B7: DGL288 (bispecific antibody)
chain: EVQLLESGGGLVQPGGSLRLSCAASGFTFSDYYMTWIRQAPGKGLEWVSSISGGSTYYADSRKGRFTISRDNSENTLYLQMNSLRAEDTAVYYCARDFGVAGWFGQYGMDVWGQGTLVTVSSGGGGSGGGGSGGGGSQSVLTQPPSASGTPGQRVTISCTGSSSNIGAGYDVHWYQQLPGTAPKLLIYRSNQRPSGVPDRFSGSKSGTSASLAISGLRSEDEADYYCSSYAGNYNLVFGGGTKLTVLDKGPSVFPLAPEPKSSEVQLLESGGGLVQPGGSLRLSCAASGFTFSSYAMSWVRQAPGKGLEWVANINQDGSEKNYVDSMRGRFTISRDNSKNTLYLQMNSLRAEDTAVYYCAREFDYWGQGTLVTVTSSGGGGSGGGGSGGGGSQSVLAQPPSASGTPGQRVTISCSGSSSNIGSNYVYWYQQLPGTAPKLLIYGNNKRPSGVPDRFSGSKSGTSASLAISGLRSEDEADYYCAAWDDSLNGRVFGGGTKLTVLDKTHTCPPCPAPEAAGAPSVFLFPPKPKDTLMISRTPEVTCVVVDVSHEDPEVKFNWYVDGVEVHNAKTKPREEQYNSTYRVVSVLTVLHQDWLNGKEYKCKVSNKALPAPIEKTISKAKGQPREPQVYTLPPSRDELTKNQVSLTCLVKGFYPSDIAVEWESNGQPENNYKTTPPVLDSDGSFFLYSKLTVDKSRWQQGNVFSCSVMHEALHNHYTQKSLSLSPG
B8: DGL266 (bispecific antibody)
chain 1: EVQLLESGGGLVQPGGSLRLSCAASGFTFSIYAMSWVRQAPGKGLEWVSAISGSGGSTYYADSVKGRFTISRDNSKNTLYLQMNSLRAEDTAVYYCARDFDYWGQGTLVTVTSSGGGGSGGGGSGGGGSQSVLTQPPSASGTPGQRVTISCSGSSSNIGSNYVYWYQQLPGTAPKLLIYGNINRPSGVPDRFSGSKSGTSASLAISGLRSEDEADYYCAAWDDSLNGRVFGGGTKLTVLGGGGSGGGGSGGGGSGVECPPCPAPPVAGPSVFLFPPKPKDTLMISRTPEVTCVVVDVSHEDPEVQFNWYVDGVEVHNAKTKPREEQFNSTFRVVSVLTVVHQDWLNGKEYKCKVSNKGLPAPIEKTISKTKGQPREPQVYTLPPCREEMTKNQVSLWCLVKGFYPSDIAVEWESNGQPENNYKTTPPMLDSDGSFFLYSKLTVDKSRWQQGNVFSCSVMHEALHNHYTQKSLSLSPG
chain 2: EVQLLESGGGLVQPGGSLRLSCAASGFTFSNAWMNWVRQAPGKGLEWVSSISSSSSYIYYADSVKGRFTISRDNSKNTLYLQMNSLRAEDTAVYYCARAVAAGGMFWGLDQWGQGTLVTVTSSGGGGSGGGGSGGGGSQSVLTQPPSASGTPGQRVTISCSGSRSNIGSNSVHWYQQLPGTAPKLLIYGNSNRPSGVPDRFSGSKSGTSASLAISGLRSEDEADYYCQSYDSSLNDHVVFGGGTKLTVLGGGGSGGGGSGGGGSGVECPPCPAPPVAGPSVFLFPPKPKDTLMISRTPEVTCVVVDVSHEDPEVQFNWYVDGVEVHNAKTKPREEQFNSTFRVVSVLTVVHQDWLNGKEYKCKVSNKGLPAPIEKTISKTKGQPREPQVCTLPPSREEMTKNQVSLSCAVKGFYPSDIAVEWESNGQPENNYKTTPPMLDSDGSFFLVSKLTVDKSRWQQGNVFSCSVMHEALHNHYTQKSLSLSPG

The binders below were run against ALK-1/BMPR-2 receptor pair of the PathHunter U2Os dimerization cells (DiscoverX 93-0962C3) (UniProt P37023 22-503; Q13873 27-1038) (assay: cell-based or functional assay).
Sequence of ALK-1/BMPR-2 receptor pair of the PathHunter U2Os dimerization cells (DiscoverX 93-0962C3) (P37023 22-503, chain 1 of 2): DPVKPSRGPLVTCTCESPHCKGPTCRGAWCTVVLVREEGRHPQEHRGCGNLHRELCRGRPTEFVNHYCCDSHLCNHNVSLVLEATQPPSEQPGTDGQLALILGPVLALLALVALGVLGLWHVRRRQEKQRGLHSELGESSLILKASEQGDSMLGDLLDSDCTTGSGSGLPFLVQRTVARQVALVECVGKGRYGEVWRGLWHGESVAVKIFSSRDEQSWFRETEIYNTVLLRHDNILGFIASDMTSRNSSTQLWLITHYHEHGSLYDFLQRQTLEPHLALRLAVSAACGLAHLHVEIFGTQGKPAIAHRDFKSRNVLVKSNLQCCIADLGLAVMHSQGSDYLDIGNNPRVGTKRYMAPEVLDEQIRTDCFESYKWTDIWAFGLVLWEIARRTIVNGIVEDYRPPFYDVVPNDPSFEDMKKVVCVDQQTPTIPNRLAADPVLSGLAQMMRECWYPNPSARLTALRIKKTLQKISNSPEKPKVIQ
Sequence of ALK-1/BMPR-2 receptor pair of the PathHunter U2Os dimerization cells (DiscoverX 93-0962C3) (Q13873 27-1038, chain 2 of 2): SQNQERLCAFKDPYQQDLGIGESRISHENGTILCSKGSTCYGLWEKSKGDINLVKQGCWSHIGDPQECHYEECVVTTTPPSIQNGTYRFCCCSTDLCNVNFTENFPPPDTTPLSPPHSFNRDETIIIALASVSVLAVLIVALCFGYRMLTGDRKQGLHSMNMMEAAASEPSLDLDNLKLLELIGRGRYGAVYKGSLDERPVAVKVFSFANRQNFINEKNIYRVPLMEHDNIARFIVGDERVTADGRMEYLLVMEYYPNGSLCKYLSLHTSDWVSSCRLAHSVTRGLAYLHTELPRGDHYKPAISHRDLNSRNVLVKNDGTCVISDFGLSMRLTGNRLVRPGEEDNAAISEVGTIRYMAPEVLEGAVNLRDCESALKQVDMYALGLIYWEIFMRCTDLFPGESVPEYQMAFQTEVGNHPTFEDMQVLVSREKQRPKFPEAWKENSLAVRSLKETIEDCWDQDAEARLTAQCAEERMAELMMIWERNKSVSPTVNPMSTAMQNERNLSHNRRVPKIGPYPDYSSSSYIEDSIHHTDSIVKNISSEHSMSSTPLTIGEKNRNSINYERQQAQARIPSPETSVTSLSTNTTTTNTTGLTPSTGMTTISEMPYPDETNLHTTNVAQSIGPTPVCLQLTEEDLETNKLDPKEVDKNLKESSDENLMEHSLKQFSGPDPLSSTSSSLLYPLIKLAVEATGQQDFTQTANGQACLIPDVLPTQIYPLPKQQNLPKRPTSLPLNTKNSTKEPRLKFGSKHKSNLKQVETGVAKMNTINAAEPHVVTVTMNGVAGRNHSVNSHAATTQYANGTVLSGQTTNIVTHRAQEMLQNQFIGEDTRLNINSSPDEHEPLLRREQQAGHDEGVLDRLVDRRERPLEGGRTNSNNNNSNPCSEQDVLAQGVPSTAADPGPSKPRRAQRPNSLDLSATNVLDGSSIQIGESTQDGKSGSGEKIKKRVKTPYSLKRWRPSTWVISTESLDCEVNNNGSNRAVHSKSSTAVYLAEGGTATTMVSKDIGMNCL

Going from B1 to B2, the “% Emax BMP9” value falls from 42% to 36%.

Going from B3 to B4, the “% Emax BMP9” value rises from 33% to 56%.

First: B5
Second: B6
The “% Emax BMP9” value of the first is higher: 68% for the first, 48% for the second.

First: B7
Second: B8
The “% Emax BMP9” value of the first is higher: 76% for the first, 39% for the second.

Going from B1 to B2, the “EC50” value falls from 330 nM to 170 nM (1.9-fold).

First: B3
Second: B4
The “EC50” value of the first is 350-fold higher: 28 nM for the first, 0.08 nM for the second.

Going from B5 to B6, the “EC50” value falls from 0.2 nM to 0.04 nM (5-fold).

First: B7
Second: B8
The “EC50” value of the first is 29-fold lower: 0.07 nM for the first, 2 nM for the second.

Going from B1 to B2, the “Emax (RLU)” value falls from 1.11e+06 RLU to 954000 RLU.

Compared with B3, B4 is higher in “Emax (RLU)” value: 879000 RLU for the first, 1.47e+06 RLU for the second.

Going from B5 to B6, the “Emax (RLU)” value falls from 1.8e+06 RLU to 1.26e+06 RLU.

Compared with B7, B8 is lower in “Emax (RLU)” value: 2e+06 RLU for the first, 1.04e+06 RLU for the second.
